From paper PMC7136618, “Defective nucleotide-dependent assembly and membrane fusion in Mfn2 CMT2A variants improved by Bax” (Life Science Alliance, 2020)

Tests used:
[1] = target: Mfn2^WT with a C-terminal 3×FLAG tag (UniProt Q80U63); experiment: native gel or EMSA; BN-PAGE of untreated isolated mitochondria, lysed in 1% digitonin; 4–16% Bis-Tris native gel at 4°C; anti-FLAG blot
[2] = target: the molecule itself; experiment: as above

Q: Which stoichiometry N [1] does the source give for “Mfn2^WT with a C-terminal 3×FLAG tag (from UniProt Q80U63 1-757) (natural protein)” here?
A: 2

B1: Mfn2^S378P with a C-terminal 3×FLAG tag (natural protein, UniProt Q80U63 1-757, looked up)
chain: MSLLFSRCNSIVTVKKDKRHMAEVNASPLKHFVTAKKKINGIFEQLGAYIQESASFLEDTHRNTELDPVTTEEQVLDVKGYLSKVRGISEVLARRHMKVAFFGRTSNGKSTVINAMLWDKVLPSGIGHTTNCFLRVGGTDGHEAFLLTEGSEEKKSVKTVNQLAHALHQDEQLHAGSMVSVMWPNSKCPLLKDDLVLMDSPGIDVTTELDSWIDKFCLDADVFVLVANSESTLMQTEKQFFHKVSERLSRPNIFILNNRWDASASEPEYMEEVRRQHMERCTSFLVDELGVVDRAQAGDRIFFVSAKEVLSARVQKAQGMPEGGGALAEGFQVRMFEFQNFERQFEECISQSAVKTKFEQHTVRAKQIAEAVRLIMDPLHIAAQEQRVYCLEMREERQDRLRFIDKQLELLAQDYKLRIKQITEEVERQVSTAMAEEIRRLSVLVDEYQMDFHPSPVVLKVYKNELHRHIEEGLGRNLSDRCSTAIASSLQTMQQDMIDGLKPLLPVSMRNQIDMLVPRQCFSLSYDLNCDKLCADFQEDIEFHFSLGWTMLVNRFLGPKNSRRALLGYSDQVQRPLPLTPANPSMPPLPQSSLTQEELMVSMVTGLASLTSRTSMGILVVGGVVWKAVGWRLIALSFGLYGLLYVYERLTWTTKAKERAFKRQFVEYASEKLQLIISYTGSNCSHQVQQELSGTFAHLCQQVDITRDNLEQEIAAMNKKVEALDSLQSRAKLLRNKAGWLDSELNMFTHQYLQPSR
notes: Mitofusin 2 (Mfn2) with the CMT2A-associated substitution S378P; CMT2A-associated (patient) substitution; also called Mfn2-FLAG variant S378P; source: Mfn2-null MEFs, retroviral transduction, clonal population; isolated mitochondria, lysed; not shown: 3×FLAG, C-terminal, kept
Q: With B1 as the molecule, how does the “stoichiometry N” value [2] read?
A: 2

B2: Mfn2^C390F with a C-terminal 3×FLAG tag (natural protein, UniProt Q80U63 1-757, looked up)
chain: MSLLFSRCNSIVTVKKDKRHMAEVNASPLKHFVTAKKKINGIFEQLGAYIQESASFLEDTHRNTELDPVTTEEQVLDVKGYLSKVRGISEVLARRHMKVAFFGRTSNGKSTVINAMLWDKVLPSGIGHTTNCFLRVGGTDGHEAFLLTEGSEEKKSVKTVNQLAHALHQDEQLHAGSMVSVMWPNSKCPLLKDDLVLMDSPGIDVTTELDSWIDKFCLDADVFVLVANSESTLMQTEKQFFHKVSERLSRPNIFILNNRWDASASEPEYMEEVRRQHMERCTSFLVDELGVVDRAQAGDRIFFVSAKEVLSARVQKAQGMPEGGGALAEGFQVRMFEFQNFERQFEECISQSAVKTKFEQHTVRAKQIAEAVRLIMDSLHIAAQEQRVYFLEMREERQDRLRFIDKQLELLAQDYKLRIKQITEEVERQVSTAMAEEIRRLSVLVDEYQMDFHPSPVVLKVYKNELHRHIEEGLGRNLSDRCSTAIASSLQTMQQDMIDGLKPLLPVSMRNQIDMLVPRQCFSLSYDLNCDKLCADFQEDIEFHFSLGWTMLVNRFLGPKNSRRALLGYSDQVQRPLPLTPANPSMPPLPQSSLTQEELMVSMVTGLASLTSRTSMGILVVGGVVWKAVGWRLIALSFGLYGLLYVYERLTWTTKAKERAFKRQFVEYASEKLQLIISYTGSNCSHQVQQELSGTFAHLCQQVDITRDNLEQEIAAMNKKVEALDSLQSRAKLLRNKAGWLDSELNMFTHQYLQPSR
notes: Mitofusin 2 (Mfn2) with the CMT2A-associated substitution C390F; CMT2A-associated (patient) substitution; also called Mfn2-FLAG variant C390F; source: Mfn2-null MEFs, retroviral transduction, clonal population; isolated mitochondria, lysed; not shown: 3×FLAG, C-terminal, kept
Q: Which “stoichiometry N” value [2] does the source give for B2 here?
A: 2

B3: Mfn2^A383V with a C-terminal 3×FLAG tag (natural protein, UniProt Q80U63 1-757, looked up)
chain: MSLLFSRCNSIVTVKKDKRHMAEVNASPLKHFVTAKKKINGIFEQLGAYIQESASFLEDTHRNTELDPVTTEEQVLDVKGYLSKVRGISEVLARRHMKVAFFGRTSNGKSTVINAMLWDKVLPSGIGHTTNCFLRVGGTDGHEAFLLTEGSEEKKSVKTVNQLAHALHQDEQLHAGSMVSVMWPNSKCPLLKDDLVLMDSPGIDVTTELDSWIDKFCLDADVFVLVANSESTLMQTEKQFFHKVSERLSRPNIFILNNRWDASASEPEYMEEVRRQHMERCTSFLVDELGVVDRAQAGDRIFFVSAKEVLSARVQKAQGMPEGGGALAEGFQVRMFEFQNFERQFEECISQSAVKTKFEQHTVRAKQIAEAVRLIMDSLHIAVQEQRVYCLEMREERQDRLRFIDKQLELLAQDYKLRIKQITEEVERQVSTAMAEEIRRLSVLVDEYQMDFHPSPVVLKVYKNELHRHIEEGLGRNLSDRCSTAIASSLQTMQQDMIDGLKPLLPVSMRNQIDMLVPRQCFSLSYDLNCDKLCADFQEDIEFHFSLGWTMLVNRFLGPKNSRRALLGYSDQVQRPLPLTPANPSMPPLPQSSLTQEELMVSMVTGLASLTSRTSMGILVVGGVVWKAVGWRLIALSFGLYGLLYVYERLTWTTKAKERAFKRQFVEYASEKLQLIISYTGSNCSHQVQQELSGTFAHLCQQVDITRDNLEQEIAAMNKKVEALDSLQSRAKLLRNKAGWLDSELNMFTHQYLQPSR
notes: Mitofusin 2 (Mfn2) with the CMT2A-associated substitution A383V; CMT2A-associated (patient) substitution; also called Mfn2-FLAG variant A383V; source: Mfn2-null MEFs, retroviral transduction, clonal population; isolated mitochondria, lysed; not shown: 3×FLAG, C-terminal, kept
Q: With B3 as the molecule, how does the “stoichiometry N” value [2] read?
A: 2

B4: Mfn2^Q386P with a C-terminal 3×FLAG tag (natural protein, UniProt Q80U63 1-757, looked up)
chain: MSLLFSRCNSIVTVKKDKRHMAEVNASPLKHFVTAKKKINGIFEQLGAYIQESASFLEDTHRNTELDPVTTEEQVLDVKGYLSKVRGISEVLARRHMKVAFFGRTSNGKSTVINAMLWDKVLPSGIGHTTNCFLRVGGTDGHEAFLLTEGSEEKKSVKTVNQLAHALHQDEQLHAGSMVSVMWPNSKCPLLKDDLVLMDSPGIDVTTELDSWIDKFCLDADVFVLVANSESTLMQTEKQFFHKVSERLSRPNIFILNNRWDASASEPEYMEEVRRQHMERCTSFLVDELGVVDRAQAGDRIFFVSAKEVLSARVQKAQGMPEGGGALAEGFQVRMFEFQNFERQFEECISQSAVKTKFEQHTVRAKQIAEAVRLIMDSLHIAAQEPRVYCLEMREERQDRLRFIDKQLELLAQDYKLRIKQITEEVERQVSTAMAEEIRRLSVLVDEYQMDFHPSPVVLKVYKNELHRHIEEGLGRNLSDRCSTAIASSLQTMQQDMIDGLKPLLPVSMRNQIDMLVPRQCFSLSYDLNCDKLCADFQEDIEFHFSLGWTMLVNRFLGPKNSRRALLGYSDQVQRPLPLTPANPSMPPLPQSSLTQEELMVSMVTGLASLTSRTSMGILVVGGVVWKAVGWRLIALSFGLYGLLYVYERLTWTTKAKERAFKRQFVEYASEKLQLIISYTGSNCSHQVQQELSGTFAHLCQQVDITRDNLEQEIAAMNKKVEALDSLQSRAKLLRNKAGWLDSELNMFTHQYLQPSR
notes: Mitofusin 2 (Mfn2) with the CMT2A-associated substitution Q386P; CMT2A-associated (patient) substitution; also called Mfn2-FLAG variant Q386P; source: Mfn2-null MEFs, retroviral transduction, clonal population; isolated mitochondria, lysed; not shown: 3×FLAG, C-terminal, kept
Q: Which “stoichiometry N” value [2] does the source give for B4 here?
A: 2
